# In US20170014494A1:
# Biological target: SERCA2a wild type (WT), expressed from a plasmid in HEK293 cells
# Test: cell-based or functional assay
substance,measurement,value
flag-tagged SUMO1 (from UniProt P63165 2-97),EC50 (Ca2+) of ATPase activity of WT SERCA2a with co-expression of SUMO1,0.11 µM
